The results in this text go back to publication PMC12124957 (Nature chemical biology, 2025).

The data set deals with the molecule itself. Put plainly: light scattering at 340 nm.

B1: ^ΔCFtsH (T. maritima FtsH variant devoid of the N-terminal TM domain (residues 1–146) and of Cys residues) (domain or fragment, UniProt Q9WZ49 147-610, looked up)
chain: ATMYKPSGNKRVTFKDVGGAEEAIEELKEVVEFLKDPSKFNRIGARMPKGILLVGPPGTGKTLLARAVAGEANVPFFHISGSDFVELFVGVGAARVRDLFAQAKAHAPSIVFIDEIDAVGRHRGAGLGGGHDEREQTLNQLLVEMDGFDSKEGIIVMAATNRPDILDPALLRPGRFDKKIVVDPPDMLGRKKILEIHTRNKPLAEDVNLEIIAKRTPGFVGADLENLVNEAALLAAREGRDKITMKDFEEAIDRVIAGPARKSKLISPKEKRIIAYHEAGHAVVSTVVPNGEPVHRISIIPRGYKALGYTLHLPEEDKYLVSRNELLDKLTALLGGRAAEEVVFGDVTSGAANDIERATEIARNMVSQLGMSEELGPLAWGKEEQEVFLGKEITRLRNYSEEVASKIDEEVKKIVTNSYERAKEIIRKYRKQLDNIVEILLEKETIEGDELRRILSEEFEKVVE
As to B1, the off-rate (koff) is no less than 1.6 s⁻¹.
